Drawing on the supplement of paper PMC12042874, this text covers amyloid nucleation score for 141 substances.

± gives the uncertainty stated by the source.

A short description of the data set: amyloid nucleation score (Sup35N fusion, yeast selection) (log enrichment); library NNK2; higher = more nucleation; inactive = no reads after selection. In outline: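 In psi-negative yeast, Sup35N fusions carrying peptides of 20 random codons were induced with 100 μM copper sulfate for 24 hours. The cells then grew 7 days at 30°C on medium lacking adenine and uracil, and plasmid inserts from input and output were Illumina-sequenced, excluding sequences with under 100 input reads. Nucleation score is the DiMSum log enrichment of output over input reads, centred on the mode score of non-aggregating sequences.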
For LLCCMWFDRWLWTGLAWITV, the amyloid nucleation score came out at 0.247 ± 0.24.
For PSTIGQYITR, the amyloid nucleation score was -0.119 ± 0.49.
FFTVDRDFLYFPDFSKRVVM showed an amyloid nucleation score of -0.569 ± 0.79.
In the case of SIVFFNRC it was 7.562 ± 0.05; in that of NCHFTCMPAACGETVKTY, 0.597 ± 0.45; in that of KRRKSSTTVSKVGTGLEWMG, 0.874 ± 0.15.
As for NILIRASGVRA, the entry is “inactive”; as for ASLSMSLFFALSVA, “inactive”.
In the case of HGICRWL it was 0.208 ± 0.25; in that of TFELNLLVPAPNCRFHDLRR, 1.46 ± 0.22.
Substance RGHSALFTNFCGTMCGVVDG registered an amyloid nucleation score of 0.148 ± 1.
In the case of IMIFSLVTMLDVNGTIC it was 7.477 ± 0.047; in that of CQGHQWSYRPVP, 0.684 ± 0.35.
As for ISPTKSNLYMADVEFREPGT, the figure is -0.883 ± 0.49; as for CLLLRVTR, 0.015 ± 0.27; as for YQPRAYGKSPSIQFGQIVKQ, 0.106 ± 0.31.
As to GSIVVNGIGKLGKERRVTSV, the amyloid nucleation score turned out to be 0.302 ± 0.21.
For the substance AMFSEVYASHQVVPYPLSLS, the amyloid nucleation score worked out at 0.746 ± 0.62.
With LNLSWVCSLGRYFVGGYISF, the amyloid nucleation score was -1.29 ± 0.63.
As for IFLCFGYYNLEVLCFDTRCQ, the figure is 3.1 ± 0.064.
As for WRAIALLEARTGSRQ, the figure is 1.08 ± 0.14; as for RVIARLLMLWFHPPCSSTKR, 6.203 ± 0.058; as for DRWMTGMDAVYLHRRGPLFF, 0.13 ± 0.8.
In the case of LCSVQLRLMVAHNSRHLACM it was 1.5 ± 0.25; in that of NRKTIIVEPTNACRS, 0.775 ± 0.29; in that of KWVGQLTVVMWLKCNPFCFE, 0.257 ± 0.64.
As to SARRGCYWEAYCATCLKGWM, the amyloid nucleation score was -1.03 ± 0.76.
As to GFGNFVINDWSLR, the amyloid nucleation score is -1.56 ± 1.1.
As for IVLYVHTTLLAGS, the figure is 4.6 ± 0.091; as for YTVWGKY, 0.288 ± 0.53; as for QFSLLTKYTNVHILGSEEFG, 0.388 ± 0.36.
As for VGNIGPT, the amyloid nucleation score was determined as 0.338 ± 0.46.
Regarding LKLRSVKSFDFVWMIVAAEV, the amyloid nucleation score stood at 0.482 ± 0.26.
With SFFNSWTHFGNCWFL, the amyloid nucleation score turned out to be 3.85 ± 0.065.
In the case of CNIRAYDIISTLMHFVLCH it was -1.67 ± 0.55.
As for FTILRDFC, the figure is 0.152 ± 0.77; as for NFCALSKCT, -0.618 ± 0.63.
In the case of GFRSLNVSRANLCSYIRHLL it was 0.02 ± 0.44.
Substance IDSMGFSMKSFDFRYNTSRW registered an amyloid nucleation score of 5.02 ± 0.092.
For ELKVMGYMCPL, the amyloid nucleation score was 0.801 ± 0.82.
On to SGPSFILSWS, for which the amyloid nucleation score was -0.371 ± 0.63.
As for VRCRDENHVVELSGGEVPDS, the figure is 0.066 ± 1.
In the case of VHELCTYNLFEPVCSLVWYR it was 9.545 ± 0.05; in that of YANMVRERINWI, 0.198 ± 0.28.
As for RCGEVRYPCTDVYILGFRSV, the figure is -0.437 ± 0.63; as for CFGMLS, -0.679 ± 1.1; as for HNAEANNVS, -0.492 ± 1.1.
The substance GLLSCMPCRGINLLPSVIRR returned an amyloid nucleation score of 1.21 ± 0.61.
As for APCNKESIKRARGWAVRWSW, the figure is 3.12 ± 0.077; as for VKALNKLGAKINLMIRFVRS, -0.306 ± 0.39; as for RFDWVA, -0.038 ± 0.45.
In the case of RVGQGSEACFRSWSIAGPPY it was 2.8 ± 0.14; in that of MVLIENSCKMSSYQE, -0.405 ± 0.35; in that of LCFQVVMPWNNISLSFLWLG, 0.759 ± 0.52.
As for NASYRCNM, the entry is “inactive”; as for ATLNVLDPHFYNMY, -0.691 ± 0.41; as for NFENCVFWYNLYCNFD, 7.516 ± 0.047.
In the case of PYLGRFFSCLYTEWDTP, the amyloid nucleation score result was “inactive”.
In the case of IWCSTGTFWLGGRLITLWRW, the amyloid nucleation score is 1.02 ± 0.28.
On to KYGTSIVTHGAVKDAKYCCR, for which the amyloid nucleation score came to 3.44 ± 0.062.
In the case of TRYRLDACRGHAWYSVFFLM it was -0.286 ± 0.49.
As for VSRFYCKYYSAQWIRYGRAC, the figure is -0.544 ± 0.36; as for RVWSY, “inactive”.
As for FLVLVTFKFRAQTDFLSSWN, the figure is -0.884 ± 0.78; as for RFFGLAKMRMLVKCQ, 0.043 ± 0.65.
The substance VPVSRILNLFFVLVTL had an amyloid nucleation score of 6.45 ± 0.086.
In the case of ETLSQIMFYVKIIAYDCRNP it was 2.66 ± 0.13; in that of FLPYFNPEVSGIFCVNRMST, -0.971 ± 0.53.
As for SECENAFVGVPPWRTKILWS, the figure is 2.19 ± 0.12; as for VLVTRIEWMGESTCMSLVNY, 2.69 ± 0.12.
With SCSSLYT, the amyloid nucleation score turned out to be 1.11 ± 0.43.
As for SYYVLRASTELYGFHVFFLR, the figure is -0.017 ± 1.
In the case of SSVRCTYGLNCNQRL it was 2.92 ± 0.076.
In the case of IRSGIIPVTVGPYHGALYMV it was 0.662 ± 0.74; in that of MVLEGHKCYGLRNGPNNARI, 0.451 ± 0.49; in that of NRGISLGIHLRPGCMCAAHR, 0.005 ± 1.
VILNYSRY: the amyloid nucleation score is 4.5 ± 0.078.
As for SGIGY, the figure is 0.561 ± 0.62.
In the case of VNGSTMFQVMFWLRPVHVIE it was -0.119 ± 0.53; in that of IMTMTGNVDNIAVIRRS, -0.519 ± 1.
In the case of TLLKHTSSTSIVYRRHALEI it was 1.35 ± 0.29.
VRSVCRGTHFSK: the amyloid nucleation score was 0.711 ± 0.42.
In the case of VRPNSLRHILASLCFLGGEE it was 7.416 ± 0.032.
In turn, STLVWSEIIF registered an amyloid nucleation score of 0.592 ± 0.47.
As for GSWFVPRMSLSWAGSETGPQ, the entry is “inactive”; as for IFRNWGYSTFSHE, “inactive”; as for GSHKK, -1 ± 1.1.
As for YDLPFYAKEHGLPFVQWGNW, the figure is 0.261 ± 0.22; as for MQIIGWILWGVLQAELHYRS, -1.01 ± 0.53.
NSNGTFGQCLVM registered an amyloid nucleation score of -0.293 ± 0.5.
As for YCLSSNVGVFKCFNGNVVYS, the figure is 3.54 ± 0.081; as for FVLLGGMTWHT, 5.512 ± 0.027; as for TGDPTLLMAYSRSYVWRSER, 1.28 ± 0.3.
In the case of MQAMRRGQKYKSGRVIYVRG it was -0.554 ± 0.63; in that of LRRTTGYSKLTCLTHG, 4.34 ± 0.048; in that of PFVTK, 0.259 ± 0.29.
RLKAPLPYDEIFQLFVIGEI had an amyloid nucleation score of 0.698 ± 0.8.
As for WMNFCPDVGHANGGVPNRLG, the figure is 0.583 ± 0.37.
As for CKDTTKPGYFGFDIFPNVYE, the figure is 2.37 ± 0.15.
As for LNVMFCNVVNGFYYMDSFVC, the figure is 6.838 ± 0.044; as for FCALPWGFFGYMGNLNLYSD, 2.62 ± 0.083.
With FRKEEADYHGYRLYSVAVNA, the amyloid nucleation score was -0.214 ± 0.36.
In the case of SFGWDYVDPQLKNTCTHCRV it was -0.795 ± 0.48; in that of WYCSHFISFHLESKF, 4.76 ± 0.11; in that of RDLARTMI, 1.67 ± 0.34.
In the case of FLFLTTVSPRWTYRCTRFLG it was 4.64 ± 0.055.
As for MCCPRSNFGYPFHVNLDMWG, the figure is -0.186 ± 0.55; as for FDSFPSS, 0.529 ± 0.2.
The substance IRFGLVWRLKLGFMLGLNSA displayed an amyloid nucleation score of 4.98 ± 0.095.
In the case of CFRLD it was “inactive”; in that of SYNTRFIASSCSGSY, -1.06 ± 0.76.
In the case of DNFFIMALHSSREVDMKNRS it was -1.53 ± 1.
In the case of VWPTMCTVFAMF it was 2.51 ± 0.065.
Substance RIVRQSVYQELFYFGQRGSL yielded an amyloid nucleation score of 4.19 ± 0.072.
The substance SSFSHLSNAIGMPFICNCEP displayed an amyloid nucleation score of -0.385 ± 0.45.
As for LCSVWEVFLYFF, the figure is 1.84 ± 0.11; as for NENKILSDL, -0.585 ± 0.36; as for KTHIREVCEGVTIIHKWTWV, -0.508 ± 0.63.
SDLANTLEPELQAFVIQ showed an amyloid nucleation score of -0.029 ± 0.61.
In the case of IKDLSRGCFSFYW it was 1.37 ± 0.17; in that of LCRYTCSSLSVYLNNMILCG, 1.33 ± 0.13; in that of IMRMNVMCGVRYPYALFALL, “inactive”.
In the case of SHGAWTLFLSVIFCSAQYR it was 4.06 ± 0.087; in that of ILCLF, 0.909 ± 0.45.
As for YPWLRIWCDRNDIEVGLVFA, the figure is -0.055 ± 0.79; as for AWGRARNVRFYFVLRGESGL, 2.79 ± 0.12; as for WILGKFTDKFRSSRHRRNRA, 0.787 ± 0.25.
The substance RNGLILCLGEVVMSSMESVT returned an amyloid nucleation score of -0.646 ± 0.61.
As for IPEVESIGMGWGWREISGEC, the figure is 1.42 ± 0.41; as for GWRCSNPPASIKWCATLYSV, 2.08 ± 0.2; as for WYSNAVG, 1.57 ± 0.37.
As for NLRSLECLCMRCK, the figure is -0.145 ± 0.79.
As for NYRRGEKNGVDVNLASKQCT, the figure is 0.86 ± 0.46.
Consider FCCARILVNVSCVGATCGMC, for which the amyloid nucleation score was found to be 8.258 ± 0.043.
In the case of VWLNHLTTIYYCNHKLCLLL it was 2.17 ± 0.22; in that of SLSLINRSVVDAWRGRDGVR, 5.107 ± 0.034.
Turning to GKPCH, the amyloid nucleation score was determined as 0.52 ± 0.33.
As for VAVVFTKYSSRTYLGVGSVG, the figure is 4.21 ± 0.07; as for VLGGPTVRLSWFPSSGLACY, 0.23 ± 0.65.
In turn, GRSGIFCLPCMLCKFY displayed an amyloid nucleation score of 6 ± 0.064.
In the case of IFCAGYDNPRFINLLLLPKG it was 3.05 ± 0.1.
